The text below walks through data of patent publication US20240118272A1.

Assay [1] has as its target CD9(ECD)-ALP conjugate (human; bovine). Kind of assay: HI-1000 capture immunoassay; thawed aliquot 3 of secondary calibrator C3.
The target is the same in assay [2]. Kind of assay: HI-1000 capture immunoassay; primary calibrator C3, 15.65 ng/mL; run 2.
For assay [3] the target is unchanged. Put plainly: HI-1000 capture immunoassay; primary calibrator C1, 1.52 ng/mL; run 1.
Assay [4] shares this target. Kind of assay: HI-1000 capture immunoassay; secondary calibrator C4, 129.62 U/L; mean of 3.
The target of assay [5] is CD9(FL)-ALP conjugate (human; bovine). Kind of assay: HI-1000 capture immunoassay; calibrator C4, 15 ng/mL; mean of 3.
Assay [6] concerns the target CD9(ECD)-ALP conjugate (human; bovine). Put plainly: HI-1000 capture immunoassay; thawed aliquot 1 of secondary calibrator C4.
In assay [7] the target is CD9(FL)-ALP conjugate (human; bovine). Kind of assay: HI-1000 capture immunoassay; calibrator C3, 10.96 mU/L; run 2.
Assay [8] addresses CD9(ECD)-ALP conjugate (human; bovine). Put plainly: HI-1000 capture immunoassay; secondary calibrator C1, 1.02 U/L; run 2.
For assay [9], the target named is CD9(FL)-ALP conjugate (human; bovine). Put plainly: HI-1000 capture immunoassay; calibrator C1, 1.83 mU/L; mean of 3.
Assay [10] shares this target. Kind of assay: HI-1000 capture immunoassay; calibrator C4, 15 ng/mL; run 1.
The target is the same in assay [11]. Put plainly: HI-1000 capture immunoassay; calibrator C2, 3.7 ng/mL; run 1.
Assay [12] has as its target CD9(ECD)-ALP conjugate (human; bovine). Put plainly: HI-1000 capture immunoassay; thawed aliquot 3 of secondary calibrator C4.
Assay [13] deals with CD9(FL)-ALP conjugate (human; bovine). Kind of assay: HI-1000 capture immunoassay; calibrator C5, 43.86 mU/L; run 3.
The target of assay [14] is CD9(ECD)-ALP conjugate (human; bovine). Put plainly: HI-1000 capture immunoassay; secondary calibrator C5, 387.01 U/L; run 2.
Assay [15] addresses CD9(FL)-ALP conjugate (human; bovine). Kind of assay: HI-1000 capture immunoassay; calibrator C3, 7.4 ng/mL; run 3.
For assay [16] the target is unchanged. Kind of assay: HI-1000 capture immunoassay; calibrator C3, 7.4 ng/mL; run 2.
The target is the same in assay [17]. Put plainly: HI-1000 capture immunoassay; calibrator C2, 5.48 mU/L; run 3.
Assay [18] has as its target CD9(ECD)-ALP conjugate (human; bovine). Put plainly: HI-1000 capture immunoassay; thawed aliquot 3 of secondary calibrator C1.
For assay [19] the target is unchanged. Kind of assay: HI-1000 capture immunoassay; secondary calibrator C1, 1.02 U/L; run 3.
Assay [20] has the same target. Kind of assay: HI-1000 capture immunoassay; secondary calibrator C4, 129.62 U/L; run 3.

Chain of CD9(ECD)-ALP conjugate (human; bovine) (chain, as listed by the source, chain 1 of 2): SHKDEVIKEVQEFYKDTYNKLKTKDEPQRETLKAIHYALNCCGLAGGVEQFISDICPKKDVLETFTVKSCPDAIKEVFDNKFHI
Chain of CD9(ECD)-ALP conjugate (human; bovine) (P19111 20-506, chain 2 of 2): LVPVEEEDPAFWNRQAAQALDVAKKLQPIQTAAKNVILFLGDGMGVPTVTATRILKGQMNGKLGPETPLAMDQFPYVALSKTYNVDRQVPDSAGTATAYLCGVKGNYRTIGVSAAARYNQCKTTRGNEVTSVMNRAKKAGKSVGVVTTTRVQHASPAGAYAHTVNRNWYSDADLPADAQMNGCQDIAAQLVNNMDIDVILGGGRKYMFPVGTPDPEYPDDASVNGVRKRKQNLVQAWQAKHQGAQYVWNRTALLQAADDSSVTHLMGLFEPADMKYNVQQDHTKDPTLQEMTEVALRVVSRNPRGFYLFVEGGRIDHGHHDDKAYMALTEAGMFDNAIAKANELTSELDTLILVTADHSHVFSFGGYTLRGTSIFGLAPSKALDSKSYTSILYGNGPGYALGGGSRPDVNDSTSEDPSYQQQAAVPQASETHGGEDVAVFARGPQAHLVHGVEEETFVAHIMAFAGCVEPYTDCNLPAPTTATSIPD
Chain of CD9(FL)-ALP conjugate (human; bovine) (chain, as listed by the source, chain 1 of 2): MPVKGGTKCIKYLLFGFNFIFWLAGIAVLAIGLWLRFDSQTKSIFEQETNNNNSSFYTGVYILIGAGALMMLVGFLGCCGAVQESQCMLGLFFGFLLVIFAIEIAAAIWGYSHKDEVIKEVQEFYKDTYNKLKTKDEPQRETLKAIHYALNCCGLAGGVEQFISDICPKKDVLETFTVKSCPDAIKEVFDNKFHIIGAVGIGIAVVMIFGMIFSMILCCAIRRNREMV
Chain of CD9(FL)-ALP conjugate (human; bovine) (P19111 20-506, chain 2 of 2): as the sequence (P19111 20-506, chain 2 of 2) above

For anti-CD9 antibody (Clone: H19a), the Count value in assay [1] was 3800 count; in assay [2] it was 7230 count; in [3], 1080 count; in assay [6], 11400 count; in assay [7], 7090 count; in assay [8], 937 count. Besides, the Count value in assay [10] is 13000 count; in [11] it was 5360 count; in assay [12], 11400 count; in assay [13], 27800 count; in assay [14] it was 218000 count; in [15], 7010 count. The Count value was found to be 7020 count in assay [16]; 3780 count in assay [17]; 805 count in assay [18]; 912 count in [19]; 69500 count in [20]. The Count value (av) in assay [4] is 70000 count; in assay [5] it was 13500 count; in assay [9], 1540 count.
